The source of these data is article PMC9356133, “Regulatory mechanisms of lipopolysaccharide synthesis in Escherichia coli” (Nature Communications, 2022).

B1: LpxC labeled with Atto488 (enzyme, Escherichia coli strain CFT073, UniProt P0A725 1-305, looked up)
chain: MIKQRTLKRIVQATGVGLHTGKKVTLTLRPAPANTGVIYRRTDLNPPVDFPADAKSVRDTMLCTCLVNEHDVRISTVEHLNAALAGLGIDNIVIEVNAPEIPIMDGSAAPFVYLLLDAGIDELNCAKKFVRIKETVRVEDGDKWAEFKPYNGFSLDFTIDFNHPAIDSSNQRYAMNFSADAFMRQISRARTFGFMRDIEYLQSRGLCLGGSFDCAIVVDDYRVLNEDGLRFEDEFVRHKMLDAIGDLFMCGHNIIGAFTAYKSGHALNNKLLQAVLAKQEAWEYVTFQDDAELPLAFKAPSAVLA
modifications: Atto488 dye (Atto488 protein labeling kit, protein to dye ratio of 6:1)
notes: LpxC, amplified from Escherichia coli strain CFT073 genomic DNA; His tag removed by 3C protease; also called LpxC-Atto488; source: E. coli BL21 Star (DE3) pLysS, purified (Ni-NTA, 3C cleavage, gel filtration), labeled with Atto488; not shown: His tag, N-terminal, cleaved
B2: LapB cytoplasmic domain (LapB_(cyto)) (domain or fragment, Escherichia coli strain CFT073, UniProt P0AB58 21-389, looked up)
chain: RRSAQQNKQDEANRLSRDYVAGVNFLLSNQQDKAVDLFLDMLKEDTGTVEAHLTLGNLFRSRGEVDRAIRIHQTLMESASLTYEQRLLAIQQLGRDYMAAGLYDRAEDMFNQLTDETDFRIGALQQLLQIYQATSEWQKAIDVAERLVKLGKDKQRVEIAHFYCELALQHMASDDLDRAMTLLKKGAAADKNSARVSIMMGRVFMAKGEYAKAVESLQRVISQDRELVSETLEMLQTCYQQLGKTAEWAEFLQRAVEENTGADAELMLADIIEARDGSEAAQVYITRQLQRHPTMRVFHKLMDYHLNEAEEGRAKESLMVLRDMVGEKVRSKPRYRCQKCGFTAYTLYWHCPSCRAWSTIKPIRGLDGL

Experiment [1] addresses B2. In words: inhibition of a protease assay (Kd calculated from the IC50); 0.06 μM FtsH/LapB complex on POPC liposomes, 1.8 μM LpxC-Atto488, 0-12.96 μM LapB_(cyto) in solution, 37 °C, 20 min; Kd = (IC50 – 2KM/3)/2. The conditions noted are these: both partners purified.
A further experiment deals with FtsH (non-tagged) (Escherichia coli strain CFT073, UniProt P0AAI3 1-644). Description: cell-based or functional assay.
Experiment [2] deals with B1. Description: cell-based or functional assay.

Sequence of FtsH (non-tagged) (P0AAI3 whole entry): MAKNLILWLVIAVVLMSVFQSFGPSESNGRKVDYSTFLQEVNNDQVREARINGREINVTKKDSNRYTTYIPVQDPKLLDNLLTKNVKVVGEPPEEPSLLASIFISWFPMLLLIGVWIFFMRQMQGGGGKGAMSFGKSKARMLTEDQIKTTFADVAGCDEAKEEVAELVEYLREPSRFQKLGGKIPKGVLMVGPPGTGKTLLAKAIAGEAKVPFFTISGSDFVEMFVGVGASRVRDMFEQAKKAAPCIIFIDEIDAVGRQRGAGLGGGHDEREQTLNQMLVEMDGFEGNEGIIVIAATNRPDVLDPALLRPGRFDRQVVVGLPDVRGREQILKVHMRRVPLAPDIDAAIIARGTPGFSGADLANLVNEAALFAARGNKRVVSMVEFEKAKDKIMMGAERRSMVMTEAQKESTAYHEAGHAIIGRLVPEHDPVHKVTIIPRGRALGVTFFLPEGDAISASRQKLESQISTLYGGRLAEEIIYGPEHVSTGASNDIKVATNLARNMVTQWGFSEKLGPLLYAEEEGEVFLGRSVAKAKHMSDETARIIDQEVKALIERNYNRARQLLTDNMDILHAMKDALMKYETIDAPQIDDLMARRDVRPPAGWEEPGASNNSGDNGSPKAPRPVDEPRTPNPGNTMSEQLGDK

In general, Kd refers to a measure of binding affinity in units of concentration. Regarding B1, the Kd in experiment [1] is 1340 nM. Moreover, the “fold reduction by LapB of the KM for LpxC degradation by FtsH proteoliposomes” value in the experiment with FtsH (non-tagged) is ~8 fold.

Consider B2, for which the “IC50 of inhibition of LpxC-Atto488 degradation by FtsH/LapB proteoliposomes (0-12.96 μM LapB_(cyto))” value in experiment [2] was found to be 3960 nM.
